Data: publication PMC12647017, “Discovery and optimization of a synthetic small protein domain targeting antibodies” (Frontiers in Bioengineering and Biotechnology, 2025)

What was measured:
[1] = Solubility / precipitation observed during production, dialysis and purification; format: physicochemical; conditions: lead ligand sequences from WWp5_4 naïve library
Experimental: Therefore, after expression the soluble fractions were further centrifuged at 42,000 g for 20 min at 4 °C. As the samples were diluted (∼5 mg/mL in 25 mL lysis buffer), the soluble fractions were lyophilized and resuspended in 4 mL of water. The samples were dialyzed (Membranes Spectra Pre-Treated 1 kDa, Carl Roth) to Binding buffer without imidazole (20 mM Sodium Phosphate, 500 mM Sodium Chloride pH 7.4) for 24 h at 16 °C. The samples were quantified by […] (typically ∼6 mg/mL), this solution was diluted 1:2 in Binding buffer (20 mM Sodium Phosphate, 500 mM Sodium Chloride, 20 mM imidazole pH 7.4) and purified in a gravitational flow with 6 mL of resin (IMAC Sepharose 6 Fast Flow (Ni^2+), Cytiva) packed in a PD-10 column. The column was prepared using the indications of the manufacturer. The binding of the protein to the column was maximized by an incubation for 1 h at room temperature in agitation at 40rpm. The resin was washed 4 x column volumes (CV) with binding buffer. The elution as achieved by incubation for 15min with elution buffers. We used a gradient with 3 x CV elution buffer 1 (binding buffer with 100 mM imidazole) and 3 x CV elution buffer 2 (binding buffer with 200 mM imidazole).
The most enriched elutions in WW domains (60%–70% purity) were combined and dialysed against PBS1x (10 mM Na2HPO4, 1.8 mM KH2PO4, 2.7 mM KCl, 137 mM NaCl pH 7.4) with routine changes of buffer up to 48 h at 16 °C. Following the samples were concentrated with a Amicon-Ultra15 3 kDa MWCO (Millipore) with centrifugation conditions 4,900 g, 30 min, 4 °C. The final samples were quantified by BCA assay.
Size Exclusion Chromatography (SEC). The samples were further purified by SEC to achieve 90% purity in a AKTA system (Cytiva). The column Superdex 75 Increase 10/300 GL (29148721, Cytiva) was washed with water and equilibrated 2CV in PBS1x, as described by the manufacturer. As calibrants we prepare a mixture: 2 mg/mL of Bovine Serum Albumin (66 kDa, BP9702-100, FisherScientific), Ovalbumin (42 kDa, A5503-1G, Sigma), Chicken Lysozyme ([…], 62,971–10G-F, Fluka) and hPin1_WW chemically synthesized (5 kDa, produced in ([Dias et al., 2015])) in PBS 1x, this sample was filtered with 0.2 µm PES (514–0073, VWR) and analysed. The operation conditions: flow 0.5 mL/min, 0.05 CV in PBS1x and injection of 250 µL and run for 2 CV with PBS 1x at 16 °C. The same method was used for the WW domain samples. After purifications samples were quantified for total protein by BCA assay, as described previously and used for characterization.

[2] = Partition of expressed E6 between soluble and insoluble fraction; format: physicochemical; conditions: E. coli Rosetta (DE3), supplementation with L-arginine / L-glutamic acid (tests E and H), Tris-Tricine gel
Experimental: The gene corresponding to the chosen E6 sequence was cloned according to the detail information in Supplementary Material. The bacterial clones with the insert DNA were selected for protein expression in E. coli Rosetta (DE3) cells. For this purpose, the DNA was purified with NZYMiniprep kit and was used for transformation onto E. coli Rosetta competent cells following the protocol of the manufacturer. For the protein expression, a pre-inoculum was prepared adding 5 µL of the transformed colonies glycerol stock in 5 mL LB medium containing ampicillin (vector resistance) and […] (strain resistance). After 6 h of incubation, 1 mL of the culture was added to 100 mL of LB medium and was incubated overnight at 37 °C at 225 rpm. On the following day, 10 mL of the culture was inoculated onto 1 L of LB medium and was incubated at 37 °C at 225 rpm. […]
The WWp5_4 scaffold is composed by 42 amino acid residues with a molecular weight of approximately 5 kDa. […] The protein expression profile was evaluated under normal expression conditions (without supplementation of amino acids, test A) and a strong band at ∼ 5 kDa is visible (Supplementary Figure S3A). […] To assess whether test E or test H has higher content of soluble E6, bacterial cells were lysed and the soluble supernatant analysed. […]

With “SMGLPPGWDEYKT RRFKL GKTYYYNH HILS KTSTWTDPRMSS [Clone E6]” the “solubility observed in production and purification” value [1] was “limited solubility” and the “soluble fraction of expressed protein” value [2] was 16%.
